These results are taken from article PMC11633740, “Rapid prediction of acute thrombosis via nanoengineered immunosensors with unsupervised clustering for multiple circulating biomarkers”.

One data set deals with T1, C-reactive protein (CRP) (human, UniProt P02741 19-224).
T1 sequence: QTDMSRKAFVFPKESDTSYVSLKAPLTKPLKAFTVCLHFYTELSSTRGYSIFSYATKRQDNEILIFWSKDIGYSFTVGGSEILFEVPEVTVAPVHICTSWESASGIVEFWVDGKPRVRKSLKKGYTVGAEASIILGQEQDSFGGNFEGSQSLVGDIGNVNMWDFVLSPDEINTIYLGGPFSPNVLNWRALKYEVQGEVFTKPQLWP
Briefly: electrochemical impedance spectroscopy; aptamer on Au NP/CNT electrode; linear 0.1-10^4 ug/ml, LOD 0.023 ug/ml; SPR (Biacore 2000, SA chip): 10 mM Hepes, 150 mM NaCl, pH 7.4, 0.005% Tween 20, 25 C; EIS: 45 min incubation (plasma workflow), PBS pH 7.4 washes, 5 mM ferri/ferrocyanide probe. The settings on record: protein: commercial; chain copies: 5.

Data set [1] concerns the target soluble P-selectin (sP-selectin) (human, UniProt P16109 42-771). Briefly: electrochemical impedance spectroscopy; aptamer on Au NP/CNT electrode; linear 0.1-10^4 ng/ml, LOD 0.019 ng/ml; SPR (Biacore 2000, SA chip): 10 mM Hepes, 150 mM NaCl, pH 7.4, 0.005% Tween 20, 25 C; EIS: 45 min incubation (plasma workflow), PBS pH 7.4 washes, 5 mM ferri/ferrocyanide probe. The note with it: protein: commercial.

Sequence of soluble P-selectin (sP-selectin) (P16109 42-771): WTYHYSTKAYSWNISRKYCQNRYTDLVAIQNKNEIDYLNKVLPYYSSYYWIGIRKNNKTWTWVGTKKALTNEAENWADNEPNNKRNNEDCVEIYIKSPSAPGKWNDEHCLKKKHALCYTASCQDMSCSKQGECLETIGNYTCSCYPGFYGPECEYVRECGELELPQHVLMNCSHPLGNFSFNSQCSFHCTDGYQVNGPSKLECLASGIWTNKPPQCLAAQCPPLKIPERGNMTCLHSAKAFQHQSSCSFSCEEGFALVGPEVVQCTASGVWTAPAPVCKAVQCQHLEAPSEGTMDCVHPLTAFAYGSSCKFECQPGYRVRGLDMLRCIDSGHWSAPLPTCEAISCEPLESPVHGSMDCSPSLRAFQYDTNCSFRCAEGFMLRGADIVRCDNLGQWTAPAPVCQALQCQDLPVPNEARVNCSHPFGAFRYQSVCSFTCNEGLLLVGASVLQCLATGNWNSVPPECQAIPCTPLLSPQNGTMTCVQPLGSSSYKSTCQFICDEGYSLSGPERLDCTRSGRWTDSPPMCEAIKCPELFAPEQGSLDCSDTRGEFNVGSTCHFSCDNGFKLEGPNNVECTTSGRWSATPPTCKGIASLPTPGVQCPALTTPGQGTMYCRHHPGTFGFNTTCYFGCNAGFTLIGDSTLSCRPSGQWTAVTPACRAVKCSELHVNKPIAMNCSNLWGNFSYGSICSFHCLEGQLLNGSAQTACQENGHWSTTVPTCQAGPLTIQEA

GCCTGTAAGGTGGTCGGTGTGGCGAGTGTGTTAGGAGAGATTGC (ssDNA, thiol (position not given) for the electrode) [CRP aptamer]: the binding result with C-reactive protein (CRP) is on record as “binds”.

B1: sP-selectin aptamer (ssRNA)
RNA: ACGCUCAACGAGCCAGGAACAUCGACGUCAGCAAACGCGAGCGCAACCAGUAACACC
modifications: thiol (position not given) for the electrode; no 2' modification stated
In the case of B1, the binding result in data set [1] is reported as “binds”.
